What was measured:
[1] = biological target: T1, SifR (SpSifR, SPD_1448) (Streptococcus pneumoniae, UniProt A0A0H2ZNG7); assay: LC-ESI-MS and tandem LC-MS/MS adduct; fluorescence anisotropy DNA release; format: binding; settings: covalent at C102, slower than BQ, mainly monoadduct; 20-fold excess, 1 h, pH 7.5
T1 construct: pHis.parallel1, E. coli BL21(DE3); His6 tag removed with TEV protease; homodimer; about 16 kDa protomer (BQ2-SifR expected 16,227 Da)

[2] = biological target: T2, YhdA (SpYhdA, SPD_1375) (Streptococcus pneumoniae, UniProt A0A0H2ZRU6); assay: ferric reductase, ferrozine capture at […] nm; format: biochemical; settings: 10 uM FMN, 100 uM Fe(III)-NTA, 100 uM NADH or NADPH, pH 7.5, 25 C
T2 construct: pHis.parallel1, E. coli BL21(DE3); His6 tag removed with TEV protease

[3] = biological target: T3, CatE (SpCatE, SPD_0072) (Streptococcus pneumoniae, UniProt A0A0H2ZQ49); assay: UV-Vis and MS of ring-cleavage product; format: biochemical; settings: 5 uM Fe(II)-CatE, 100 uM substrate, ambient O2, pH 7.4, room temperature
T3 construct: pHis.parallel1, E. coli BL21(DE3); His6 tag removed with TEV protease; Fe(II)-reconstituted

[4] = biological target: T3, CatE (SpCatE, SPD_0072); assay: UV-Vis at […] nm and MS of ring-cleavage product; format: biochemical; settings: 5 uM Fe(II)-CatE, 100 uM substrate, ambient O2, pH 7.4, room temperature
[5] = biological target: Streptococcus pneumoniae SifR (streptococcal IscR-like family transcriptional repressor), WT (Streptococcus pneumoniae D39); assay: SEC
[6] = biological target: Streptococcus pneumoniae SifR C84S (Streptococcus pneumoniae D39); assay: SEC
[7] = biological target: Streptococcus pneumoniae SifR C84S/C102S (Streptococcus pneumoniae D39); assay: SEC
[8] = biological target: Streptococcus pneumoniae SifR C102S (Streptococcus pneumoniae D39); assay: SEC
[9] = biological target: T4, SifR WT (Streptococcus pneumoniae D39, UniProt A0A0H2ZNG7 1-145); assay: fluorescence anisotropy; reduced, 2 mM TCEP; 25 mM Tris-HCl, 150 mM NaCl, 2 mM EDTA, 2 mM TCEP, pH 7.5, 25 C, ~10 nM labeled DNA (Fig S8: 50 mM Tris-HCl, 150 mM NaCl, pH 7.4, 25 C; NMR: 25 mM MES pH 6.5, 150 mM NaCl, 25 C); settings: protein: recombinant; tags: His6 removed by TEV; tag-free; chain copies: 2; label: 5'-fluorescein; blunt
[10] = biological target: SifR C84S (Streptococcus pneumoniae D39, UniProt A0A0H2ZNG7 1-145, C84S); assay: as above; settings: protein: recombinant; tags: His6 removed by TEV; tag-free; chain copies: 2; label: 5'-fluorescein; blunt
[11] = biological target: T4, SifR WT; assay: fluorescence anisotropy competition; reduced, 2 mM TCEP; competitor of F-catE; 25 mM Tris-HCl, 150 mM NaCl, 2 mM EDTA, 2 mM TCEP, pH 7.5, 25 C, ~10 nM labeled DNA (Fig S8: 50 mM Tris-HCl, 150 mM NaCl, pH 7.4, 25 C; NMR: 25 mM MES pH 6.5, 150 mM NaCl, 25 C); settings: protein: recombinant; tags: His6 removed by TEV; tag-free; chain copies: 2; blunt
[12] = biological target: 15N-SifR WT (Streptococcus pneumoniae D39, UniProt A0A0H2ZNG7 1-145); assay: NMR (1H,15N-TROSY); reduced; pH 6.5; 25 mM Tris-HCl, 150 mM NaCl, 2 mM EDTA, 2 mM TCEP, pH 7.5, 25 C, ~10 nM labeled DNA (Fig S8: 50 mM Tris-HCl, 150 mM NaCl, pH 7.4, 25 C; NMR: 25 mM MES pH 6.5, 150 mM NaCl, 25 C); settings: protein: recombinant; tags: His6 removed by TEV; 15N-labeled; chain copies: 2

For `CN1CC(O)C2=CC(=O)C(=O)C=C21` (stereo not drawn) [Adc, adrenochrome], the “LC-ESI-MS and tandem LC-MS/MS adduct; fluorescence anisotropy DNA release” value [1] was “Adc reacts more slowly to yield some monoadducted product”.

`Cc1cc2nc3c(=O)[nH]c(=O)nc-3n(C[C@H](O)[C@H](O)[C@H](O)COP(=O)(O)O)c2cc1C` [FMN] was tested, and the “ferric reductase, ferrozine capture at 562 nm” value [2] was “SpYhdA has significant activity and prefers FMN over FAD”.

`NC[C@H](O)c1ccc(O)c(O)c1` [NE, norepinephrine] was tested, and the “UV-Vis and MS of ring-cleavage product” value [3] was “SpCatE can utilize each of these compounds as substrates”.

With `Oc1ccccc1O` [catechol] the “UV-Vis at 375 nm and MS of ring-cleavage product” value [4] was “we first monitored its activity using UV–Vis spectroscopy against freshly prepared catechol”.

“Streptococcus pneumoniae SifR (streptococcal IscR-like family transcriptional repressor), WT (natural protein)” showed a stoichiometry N [5] of 2.

“Streptococcus pneumoniae SifR C84S (natural protein)” was tested, and the stoichiometry N [6] was 2.

In the case of “Streptococcus pneumoniae SifR C84S/C102S (natural protein)”, the stoichiometry N [7] is reported as 2.

In the case of “Streptococcus pneumoniae SifR C102S (natural protein)”, the stoichiometry N [8] is reported as 2.

B1: F-catE O/P (dsDNA)
DNA 1: TATAGTTGTAATAATAATAATTACAACGAG
DNA 2: CTCGTTGTAATTATTATTATTACAACTATA
modifications: fluorescein-dT at 5' position 1 of strand 1
In the case of B1, the Ka [9] is reported as 1 ± 0.2 10^8 M-1 and the Ka [10] is reported as 4.8 ± 1.5 10^8 M-1.

B2: ywnB O/P (dsDNA)
DNA 1: CAATTGCTGTAACTAAAATAATTACAACAAG
DNA 2: CTTGTTGTAATTATTTTAGTTACAGCAATTG
For B2, the Ka [11] was 3.2 ± 0.4 10^8 M-1.

B3: trxB O/P (dsDNA)
DNA 1: GAAAGAGTTAGAATAAAGATAGTTACAACAAG
DNA 2: CTTGTTGTAACTATCTTTATTCTAACTCTTTC
With B3 the Ka [11] was 0.13 ± 0.04 10^8 M-1.

B4: fre operator 23 bp (dsDNA)
DNA 1: AATGTAACAAATTTATTTACAAC
DNA 2: GTTGTAAATAAATTTGTTACATT
B4: binds [12].

B5: yhdA O/P (dsDNA)
DNA 1: GTTTTGTTGTAATATATTTTATAACAACGAG
DNA 2: CTCGTTGTTATAAAATATATTACAACAAAAC
With B5 the Ka [11] was 0.23 ± 0.04 10^8 M-1.

B6: fre O/P (dsDNA)
DNA 1: GATAAAATGTAACAAATTTATTTACAACAAATC
DNA 2: GATTTGTTGTAAATAAATTTGTTACATTTTATC
B6 was tested, and the Ka [11] was 0.25 ± 0.05 10^8 M-1.

Source: paper PMC9218516, “SifR is an Rrf2-family quinone sensor associated with catechol iron uptake in Streptococcus pneumoniae D39” (The Journal of Biological Chemistry, 2022)
